Consider two substances from PMC7760923.

Several values for one entry are separate records, joined by “and”; a condition that tells them apart may be missing. Equal values may be shown once.

For data set [1], the target named is E. coli-derived recombinant human bone morphogenetic protein 2 (rhBMP-2) (human) (UniProt P12643). Nature of the data set: native gel or EMSA; blue native PAGE of BMP-2 solutions, Western blot with anti-BMP-2 and silver stain; oligomers of the disulfide-bridged 26 kDa dimer.
The test system of the next data set is P12643. Nature of the data set: dynamic light scattering (DLS); BMP-2 in MES buffer pH 5, 25 °C, 173°; association of BMP-2 dimers to aggregates. As to conditions: other: dynamic light scattering (DLS).

Sequence of E. coli-derived recombinant human bone morphogenetic protein 2 (rhBMP-2) (P12643 283-396 limits assumed): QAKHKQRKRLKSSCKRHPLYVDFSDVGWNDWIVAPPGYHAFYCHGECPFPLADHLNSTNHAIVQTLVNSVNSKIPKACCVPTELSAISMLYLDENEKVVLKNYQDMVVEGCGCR

As to “E. coli-derived recombinant human bone morphogenetic protein 2 (rhBMP-2) (from UniProt P12643 24-396) (ligand)”, in data set [1], the stoichiometry N (26 kDa BMP-2 dimers) is 2 and 4.
Consider “E. coli-derived recombinant human bone morphogenetic protein 2 (rhBMP-2)”, for which the “percent of BMP-2 in larger aggregates (DLS)” value in the data set with P12643 was 3% was apparently in the form of larger aggregates.
